Reference: US20230406961A1 (published 2023)

T1: endoglin (CD105) (UniProt P17813 26-586)
T1 chain: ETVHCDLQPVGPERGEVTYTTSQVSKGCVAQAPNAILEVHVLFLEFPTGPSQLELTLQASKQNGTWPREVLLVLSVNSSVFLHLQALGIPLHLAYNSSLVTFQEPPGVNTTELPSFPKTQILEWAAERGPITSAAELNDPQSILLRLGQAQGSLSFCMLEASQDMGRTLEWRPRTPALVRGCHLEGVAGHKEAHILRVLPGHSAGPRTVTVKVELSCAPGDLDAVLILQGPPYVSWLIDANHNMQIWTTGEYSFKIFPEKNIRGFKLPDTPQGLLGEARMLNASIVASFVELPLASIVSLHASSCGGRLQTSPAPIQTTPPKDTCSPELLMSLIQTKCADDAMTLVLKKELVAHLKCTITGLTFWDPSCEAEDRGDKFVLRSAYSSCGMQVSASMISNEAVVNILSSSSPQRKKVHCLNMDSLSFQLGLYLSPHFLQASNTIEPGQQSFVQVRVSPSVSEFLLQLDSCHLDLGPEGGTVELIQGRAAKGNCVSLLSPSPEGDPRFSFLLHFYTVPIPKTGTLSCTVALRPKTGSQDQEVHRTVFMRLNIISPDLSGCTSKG


How the values were obtained:
Test in all cases: SPR (Biacore)
endoglin (CD105) = target: T1, endoglin (CD105)
Endoglin_10 = target: Endoglin_10
Endoglin_23 = target: Endoglin_23

Binder | Kd (endoglin (CD105)) [nM] | Kd (Endoglin_10) [nM] | Kd (Endoglin_23) [nM]
endoglin antibody clone Kro22 (humanized AB clone Kro22.2 / Kro22.6) (antibody, V domains shown) VH: QVQLVQSGAEVKKPGASVKVSCKASGYTFTSYWMHWVRQAPGQGLEWIGNIYPGSGSTFYDEKFKGRATLTVDTSISTAYMELSRLRSDDTAVYYCTRRNYVTGFDYWGQGTTVTVSS VL: DIQLTQSPSFLSASVGDRVTITCKSSQSVLYSSNQKNYLAWYQQKPGKAPKLLIYWASTRESGVPSRFSGSGSGTEFTLTISSLQPEDFATYYCHQYLSSYTFGQGTKLEIK | 2.44 | – | –
Endoglin (receptor) ETVHCDLQPVGPERGEVTYTTSQVSKGCVAQAPNAILEVHVLFLEFPTGPSQLELTLQASKQNGTWPREVLLVLSVNSSVFLHLQALGIPLHLAYNSSLVTFQEPPGVNTTELPSFPKTQILEWAAERGPITSAAELNDPQSILLRLGQAQGSLSFCMLEASQDMGRTLEWRPRTPALVRGCHLEGVAGHKEAHILRVLPGHSAGPRTVTVKVELSCAPGDLDAVLILQGPPYVSWLIDANHNMQIWTTGEYSFKIFPEKNIRGFKLPDTPQGLLGEARMLNASIVASFVELPLASIVSLHASSCGGRLQTSPAPIQTTPPKDTCSPELLMSLIQTKCADDAMTLVLKKELVAHLKCTITGLTFWDPSCEAEDRGDKFVLRSAYSSCGMQVSASMISNEAVVNILSSSSPQRKKVHCLNMDSLSFQLGLYLSPHFLQASNTIEPGQQSFVQVRVSPSVSEFLLQLDSCHLDLGPEGGTVELIQGRAAKGNCVSLLSPSPEGDPRFSFLLHFYTVPIPKTGTLSCTVALRPKTGSQDQEVHRTVFMRLNIISPDLSGCTSKG | – | 23.5 | 64
